For the data set the following is noted: whole UniProt chain shown.
The mark [1] stands for this setting: Pectobacterium carotovorum, pH 7.4, Thermal, DSC, CGH-10, reversible: no.
The mark [2] stands for this setting: Saccharomyces cerevisiae (strain ATCC 204508 / S288c), pH 8.5, Thermal, DSC, Tris 0.05 M, reversible: no.
The mark [3] stands for this setting: Mus musculus, pH 7.2, 25 °C, Urea, Fluorescence, Sodium phosphate 20 mM, Sodium chloride 100 mM, reversible: Yes.
Setting [4] is: Oryza sativa subsp. japonica, pH 7, Thermal, DSC, Potassium phosphate buffer, NaCl, reversible: yes.
Setting [5] is: Rattus norvegicus, pH 7.5, Thermal, Fluorescence, TEA 50 mM, transition: 3.
Where [6] appears, read: Saccharomyces cerevisiae (strain ATCC 204508 / S288c), pH 6, Thermal, Absorbance, Sodium phosphate 100 mM, reversible: yes.
Setting [7] is: Paracoccus pantotrophus, pH 7, 25 °C, Urea, CD, Sodium phosphate 20 mM, Na2SO4 0.5 M, reversible: yes.

Several values for one entry are separate records, joined by “and”; a condition that tells them apart may be missing. Identical values can stand only once.

Here are results for 10 proteins from FireProtDB.

B1: Pectate lyase wild type, Q47471 (protein)
chain: MFKYLTPIFLCTAAFSFQAQADDTMLMLLKKDNATYLSWSTDAGNVVRQDVYRSTSNNQAGSEKIAELNSTDRTFTDLTANPKSDYWYWVDTVSSNNNVQKSNAAQTAPAPLRAAPLKAASSECKAGAVIKDKTVDCGGITLGLSCTGDSDKQPPVITLENATIKNLRISEKGGSDGIHCKSGNCRIENVIWEDVCEDAATNLGKTMTIVGGVAHNTTNGPGGKPDKVLQQNAKNSHTIVQGNFTLTGQHGKLWRSCGDCTNNGGPRNLTIISATVNGTIDSIAGVNRNFGDVAEIRDLRIKNYKAGNPKICEEFKGIEKGKGKTEKYGEFWDSKNCKVSRSNVKAL
As for B1, the unfolding free energy (Pectobacterium carotovorum, pH 7.4, 25 °C, GdnHCl, DSC, CGH-10, reversible: no) was determined as 8.7 kcal/mol. In addition, under setting [1], the Tm was 81.1 °C and the “unfolding enthalpy (calorimetric)” value worked out at 102 kcal/mol.

B2: wild type, Q88HV5 (protein)
chain: MPFQQGLLATPVPAHARHLFFTLQSPEALPAALDALLPQVDGKQLLLGVGAPLAKALGREIPGLRPFPLLDAAVENPSTQHALWLWLRGDERGDLLLRTQALEQALAPALSLADSVDGFLHRGGHDLTGYEDGTENPTDEEAVQAAIAADGSSFAAFQLWKHDLQYFKSLPQADQDNIIGRRLSDNEELDDAPASAHVKRTAQESFEPEAFMVRRSVSWADQRGAGLAFVALGKSFEAFEVQLRRMSGLEDGIIDGLYRFSRPLTGGYYWCPPMSETGVDLSPLLRA
Turning to B2, the Tm (Pseudomonas putida (strain ATCC 47054 / DSM 6125 / CFBP 8728 / NCIMB 11950 / KT2440), pH 7.6, Fluorescence spectroscopy) is 65 °C.

B3: Triosephosphate isomerase wild type, P00942 (protein)
chain: MARTFFVGGNFKLNGSKQSIKEIVERLNTASIPENVEVVICPPATYLDYSVSLVKKPQVTVGAQNAYLKASGAFTGENSVDQIKDVGAKWVILGHSERRSYFHEDDKFIADKTKFALGQGVGVILCIGETLEEKKAGKTLDVVERQLNAVLEEVKDWTNVVVAYEPVWAIGTGLAATPEDAQDIHASIRKFLASKLGDKAASELRILYGGSANGSNAVTFKDKADVDGFLVGGASLKPEFVDIINSRN
Turning to B3, under setting [2], the Tm stood at 59 °C, the “heat capacity change of unfolding” value is 11.7 kcal/mol/K and the “unfolding enthalpy (calorimetric)” value was 318 kcal/mol.

B4: Adapter molecule crk wild type, Q64010 (protein)
chain: MAGNFDSEERSSWYWGRLSRQEAVALLQGQRHGVFLVRDSSTSPGDYVLSVSENSRVSHYIINSSGPRPPVPPSPAQPPPGVSPSRLRIGDQEFDSLPALLEFYKIHYLDTTTLIEPVARSRQGSGVILRQEEAEYVRALFDFNGNDEEDLPFKKGDILRIRDKPEEQWWNAEDSEGKRGMIPVPYVEKYRPASASVSALIGGNQEGSHPQPLGGPEPGPYAQPSVNTPLPNLQNGPIYARVIQKRVPNAYDKTALALEVGELVKVTKINVSGQWEGECNGKRGHFPFTHVRLLDQQNPDEDFS
For the protein B4, under setting [3], the denaturant m value was found to be 0.66 kcal/mol/M and the unfolding free energy was determined as 3.33 kcal/mol.

B5: Protein CutA 1, chloroplastic wild type, Q109R6 (protein)
chain: MPLLPSPLGSLSAAATAAPRRAAAAAGLSPLLLRRRAPIAGALLFLSLGAFAGVRSLSSSASARMESTSTTVPSIVVYVTVPNKEAGKRLAGSIISEKLAACVNIVPGIESVYWWEGKVQTDAEELLIIKTRESLLDALTEHVKANHEYDVPEVIALPIKGGNLKYLEWLKNSTRES
For B5, under setting [4], the Tm stood at 97.3 °C, the “unfolding enthalpy (calorimetric)” value came out at 347 kcal/mol and the unfolding free energy is 0.79 kcal/mol. For the same protein, the “denaturant midpoint (higher = more stable)” value (Oryza sativa subsp. japonica, pH 8, 37 °C, GdnHCl, CD, Tris-HCl buffer, NaCl, transition: 2, reversible: yes) turned out to be 2.3 M.

B6: Granulocyte-macrophage colony-stimulating factor wild type, P01587 (protein)
chain: MWLQNLLFLGIVVYSLSAPTRSPITVTRPWKHVEAIKEALNLLDDMPVTLNEEVEVVSNEFSFKKLTCVQTRLKIFEQGLRGNFTKLKGALNMTASYYQTYCPPTPETDCETQVTTYADFIDSLKTFLTDIPFECKKPGQK
In the case of B6, the unfolding free energy (Mus musculus, pH 9, 4 °C, Urea, CD, Tris-glycine 50 mM, reversible: yes) turned out to be 5.78 kcal/mol.

B7: T-cell surface antigen CD2 wild type, P08921 (protein)
chain: MRCKFLGSFFLLFSLSSKGADCRDSGTVWGALGHGINLNIPNFQMTDDIDEVRWERGSTLVAEFKRKMKPFLKSGAFEILANGDLKIKNLTRDDSGTYNVTVYSTNGTRILNKALDLRILEMVSKPMIYWECSNATLTCEVLEGTDVELKLYQGKEHLRSLRQKTMSYQWTNLRAPFKCKAVNRVSQESEMEVVNCPEKGLPLYLIVGVSAGGLLLVFFGALFIFCICKRKKRNRRRKGEELEIKASRMSTVERGPKPHSTQASAPASQNPVASQAPPPPGHHLQTPGHRPLPPSHRNREHQPKKRPPPSGTQVHQQKGPPLPRPRVQPKPPCGSGDVSLPPPN
For the protein B7, under setting [5], the Tm stood at 24.9 °C; the “heat capacity change of unfolding” value was 0.5 kcal/mol/K and 0.98 kcal/mol/K; the “unfolding enthalpy (van 't Hoff)” value was 14.5 kcal/mol.

B8: Holocytochrome-c synthase wild type, P06182 (protein)
chain: MGWFWADQKTTGKDIGGAAVSSMSGCPVMHESSSSSPPSSECPVMQGDNDRINPLNNMPELAASKQPGQKMDLPVDRTISSIPKSPDSNEFWEYPSPQQMYNAMVRKGKIGGSGEVAEDAVESMVQVHNFLNEGCWQEVLEWEKPHTDESHVQPKLLKFMGKPGVLSPRARWMHLCGLLFPSHFSQELPFDRHDWIVLRGERKAEQQPPTFKEVRYVLDFYGGPDDENGMPTFHVDVRPALDSLDNAKDRMTRFLDRMISGPSSSSSAP
Consider B8, for which, under setting [6], the Tm amounted to 46.5 °C, the “heat capacity change of unfolding” value was found to be 2 kcal/mol/K and the “unfolding enthalpy (van 't Hoff)” value is 79 kcal/mol.

B9: Amicyanin wild type, P22364 (protein)
chain: MISATKIRSCLAACVLAAFGATGALADKATIPSESPFAAAEVADGAIVVDIAKMKYETPELHVKVGDTVTWINREAMPHNVHFVAGVLGEAALKGPMMKKEQAYSLTFTEAGTYDYHCTPHPFMRGKVVVE
For the protein B9, the Tm is 60 °C and 55 °C (Paracoccus denitrificans, pH 7.5, Thermal, CD, Potassium Phosphate Buffer 100 mM); 66.4 °C (Paracoccus denitrificans, pH 7.5, Thermal, absorbance, Potassium Phosphate Buffer 10 mM).

B10: Pseudoazurin wild type, P80401 (protein)
chain: MFHHSLAAAAAALLALAAPGFAATHEVHMLNKGESGAMVFEPAFVRAEPGDVINFVPTDKSHNVEAIKEILPEGVESFKSKINESYTLTVTEPGLYGVKCTPHFGMGMVGLVQVGDAPENLDAAKTAKMPKKARERMDAELAQVN
Turning to B10, under setting [7], the denaturant m value was 1.87 kcal/mol/M and the unfolding free energy came to 6.88 kcal/mol.
